Results as given in publication PMC3291610, “Identification of the Neogenin-Binding Site on the Repulsive Guidance Molecule A” (PLoS ONE, 2012).

Biological target: T1, Recombinant mouse neogenin-Fc chimera protein (mouse, UniProt P97798 37-1136)
T1 construct: neogenin, mouse, extracellular domain (ECD); No catalogue number printed; detected by an anti-IgG Fc antibody; also called neogenin-ECD-Fc; Fc-fused neogenin ECD; source: bought: R&D Systems
T1 sequence (looked up): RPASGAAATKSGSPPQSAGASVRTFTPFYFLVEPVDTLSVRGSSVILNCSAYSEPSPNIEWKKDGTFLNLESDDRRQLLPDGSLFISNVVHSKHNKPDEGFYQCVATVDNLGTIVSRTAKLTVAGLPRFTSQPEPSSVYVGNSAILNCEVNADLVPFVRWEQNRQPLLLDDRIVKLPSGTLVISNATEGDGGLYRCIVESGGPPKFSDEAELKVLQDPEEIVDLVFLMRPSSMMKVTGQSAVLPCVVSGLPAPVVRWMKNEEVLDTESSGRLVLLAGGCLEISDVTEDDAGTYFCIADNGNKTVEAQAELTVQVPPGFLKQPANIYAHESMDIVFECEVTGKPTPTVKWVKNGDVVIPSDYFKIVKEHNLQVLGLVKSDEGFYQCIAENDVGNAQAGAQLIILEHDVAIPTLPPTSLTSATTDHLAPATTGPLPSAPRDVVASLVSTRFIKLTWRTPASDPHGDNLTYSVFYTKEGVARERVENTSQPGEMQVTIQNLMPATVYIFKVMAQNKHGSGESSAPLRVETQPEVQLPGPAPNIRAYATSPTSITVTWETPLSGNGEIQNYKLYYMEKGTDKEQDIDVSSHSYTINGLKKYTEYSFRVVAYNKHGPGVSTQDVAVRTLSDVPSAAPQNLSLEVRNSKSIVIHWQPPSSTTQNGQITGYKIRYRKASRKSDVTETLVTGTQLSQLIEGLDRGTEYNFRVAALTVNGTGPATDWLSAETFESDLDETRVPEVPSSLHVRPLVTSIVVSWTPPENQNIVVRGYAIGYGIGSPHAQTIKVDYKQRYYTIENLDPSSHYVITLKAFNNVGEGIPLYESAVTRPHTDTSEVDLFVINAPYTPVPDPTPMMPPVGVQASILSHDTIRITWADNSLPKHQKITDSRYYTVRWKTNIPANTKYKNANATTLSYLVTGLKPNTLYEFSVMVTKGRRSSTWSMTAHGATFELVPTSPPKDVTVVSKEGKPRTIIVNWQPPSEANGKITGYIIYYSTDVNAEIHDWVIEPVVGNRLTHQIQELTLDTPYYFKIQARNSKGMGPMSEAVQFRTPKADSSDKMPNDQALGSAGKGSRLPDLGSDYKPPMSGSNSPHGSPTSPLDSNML
Test: ELISA; synthetic TAT-RGMa peptides coated on the plate (5 µg/mL, 16 h, 4°C), blocked with 5% BSA/PBS; neogenin-Fc added at 1 µg/mL for 1 h; detected with anti-IgG Fc antibody and HRP secondary, A450
Conditions: both partners purified

B1: RGMa peptide 4 (aa 284-293) fused with an N-terminal TAT protein (peptide)
peptide: YGRKKRRQRRRRQVGRYLTFA
notes: The TAT-fused form was used in the ELISA; peptide 4 without TAT was used in the growth cone collapse assay; also called Pep4; source: synthetic peptide (SIGMA Life Science, Japan)
B1: binds.
